Laboratory results: paper PMC8373069
One block for each substance: values may come before it.

Experiments:
[1] = target: T1, MUTYH (His tag cleaved) (mouse) (UniProt Q99P21); assay: EMSA; conditions: 20 nM MUTYH, 8 nM DNA, no UV-DDB; strand 1 position 21 = 8-oxoG (written G); strand 2 position 17 = tetrahydrofuran abasic analogue (written N), opposite the 8-oxoG; EMSA: 20 mM HEPES pH 7.5, 150 mM NaCl, 5 mM DTT, 0.5 mg/ml BSA, 5% glycerol, RT; 5% native gel in 1/2x TBE at 4 C
T1 sequence: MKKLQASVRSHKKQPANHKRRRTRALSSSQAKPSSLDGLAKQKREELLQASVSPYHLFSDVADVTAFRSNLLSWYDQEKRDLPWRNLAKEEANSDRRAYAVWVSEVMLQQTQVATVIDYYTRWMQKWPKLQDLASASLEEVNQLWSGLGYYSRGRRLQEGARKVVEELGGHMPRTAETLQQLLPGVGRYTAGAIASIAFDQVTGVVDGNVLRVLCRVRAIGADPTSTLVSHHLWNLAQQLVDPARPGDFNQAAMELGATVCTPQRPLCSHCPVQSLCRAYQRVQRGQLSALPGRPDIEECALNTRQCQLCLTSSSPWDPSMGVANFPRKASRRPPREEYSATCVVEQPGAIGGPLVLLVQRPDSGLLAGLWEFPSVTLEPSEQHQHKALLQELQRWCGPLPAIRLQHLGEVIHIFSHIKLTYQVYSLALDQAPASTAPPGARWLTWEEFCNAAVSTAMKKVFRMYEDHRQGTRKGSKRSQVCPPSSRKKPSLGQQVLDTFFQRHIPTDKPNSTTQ

[2] = test system: His6-MUTYH (mouse); assay: single-molecule DNA tightrope; conditions: one tetrahydrofuran abasic site every 2 kb, EMSA: 20 mM HEPES pH 7.5, 150 mM NaCl, 5 mM DTT, 0.5 mg/ml BSA, 5% glycerol, RT, 5% native gel in 1/2x TBE at 4 C
[3] = target: mouse MUTYH, hexa-histidine tag cleaved with thrombin (mouse) (UniProt Q99P21)

Substance: CCGAGTCATTCCTGCAGCGAGTCCATGGGAGTCAAAT / ATTTGACTCCCATGGANTCGCTGCAGGAATGACTCGG [THF8-oxoG37]
binding signal [1]: > 80 % DNA bound

Substance: THF array (tightrope DNA)
binding signal (s (half-life on abasic sites)) ([2]; with UV-DDB, which promotes MUTYH dissociation): 590
binding signal (s (half-life on abasic sites)) ([2]; without UV-DDB): 8800

MUTYH (20 nM) excision of A opposite 8-oxoG in 50 nM 37 bp duplex, with 50 nM UV-DDB against without, up to 4 h at 37°C [3]: 4 to 5 fold
Substance: UV-DDB (DDB1–DDB2 heterodimer) (from UniProt Q16531 1-1140; Q92466 1-427) (complex)
